From publication PMC10901769, “An anti-CRISPR that represses its own transcription while blocking Cas9-target DNA binding” come the findings set out here.

Data set [1] has as its target T1, AcrIIA15 full-length (UniProt PDB:8JG9_3 1-171).
T1 sequence: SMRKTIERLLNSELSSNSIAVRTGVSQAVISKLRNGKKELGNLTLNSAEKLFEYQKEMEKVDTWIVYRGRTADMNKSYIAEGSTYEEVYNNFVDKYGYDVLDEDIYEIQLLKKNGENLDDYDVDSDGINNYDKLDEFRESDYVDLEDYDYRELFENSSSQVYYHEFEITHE
Nature of the data set: SEC; no stable binding; Promoter EMSA: 20 mM Tris-HCl pH 7.5, 300 mM NaCl, on ice/4 C, 30 min; SaCas9 EMSA: 20 mM Tris pH 7.5, 200 mM NaCl, 10 mM EDTA, RT; SPR: 10 mM Na2HPO4, 2 mM KH2PO4, 0.3 M NaCl; SEC: 20 mM Tris pH 7.5, 300 mM NaCl. The note with it: protein: recombinant; tags: C-terminal His6, or His6-Sumo removed by Ulp1; chain copies: 2; blunt. (In general: Size exclusion chromatography separates by hydrodynamic size, large species first.)

For the next data set, the target named is T2, SaCas9;AcrIIA15 CTD (Staphylococcus aureus;, UniProt J7RUA5;PDB:8JFT_3 1-1053;1-114, |).
T2 sequence 1: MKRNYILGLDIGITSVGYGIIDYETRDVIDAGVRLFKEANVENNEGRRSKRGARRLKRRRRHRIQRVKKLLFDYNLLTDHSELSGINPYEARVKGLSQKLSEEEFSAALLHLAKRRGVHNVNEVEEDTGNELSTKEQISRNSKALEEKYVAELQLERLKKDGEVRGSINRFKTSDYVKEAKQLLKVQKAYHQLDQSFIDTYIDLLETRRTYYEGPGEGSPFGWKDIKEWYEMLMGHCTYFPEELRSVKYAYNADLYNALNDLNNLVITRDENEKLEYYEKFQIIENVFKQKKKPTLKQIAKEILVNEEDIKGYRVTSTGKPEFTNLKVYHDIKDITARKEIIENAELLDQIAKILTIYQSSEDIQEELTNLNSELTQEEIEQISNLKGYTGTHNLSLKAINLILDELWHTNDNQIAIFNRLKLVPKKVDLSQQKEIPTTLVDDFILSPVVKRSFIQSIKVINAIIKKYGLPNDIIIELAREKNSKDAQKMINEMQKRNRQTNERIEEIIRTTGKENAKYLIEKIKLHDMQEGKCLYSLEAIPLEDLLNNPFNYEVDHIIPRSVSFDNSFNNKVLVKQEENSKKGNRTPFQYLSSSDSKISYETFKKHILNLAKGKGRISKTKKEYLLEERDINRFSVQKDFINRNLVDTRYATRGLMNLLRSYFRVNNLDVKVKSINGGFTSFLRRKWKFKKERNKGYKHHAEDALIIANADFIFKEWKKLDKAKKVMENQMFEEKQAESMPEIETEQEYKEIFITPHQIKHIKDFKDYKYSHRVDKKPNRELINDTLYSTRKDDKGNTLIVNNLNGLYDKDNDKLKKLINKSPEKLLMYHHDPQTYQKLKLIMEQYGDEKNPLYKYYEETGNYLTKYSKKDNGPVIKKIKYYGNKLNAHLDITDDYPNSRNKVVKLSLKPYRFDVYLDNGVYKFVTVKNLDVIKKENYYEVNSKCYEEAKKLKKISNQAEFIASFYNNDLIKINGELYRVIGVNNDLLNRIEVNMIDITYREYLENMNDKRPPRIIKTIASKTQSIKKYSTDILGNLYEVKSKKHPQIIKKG
T2 sequence 2: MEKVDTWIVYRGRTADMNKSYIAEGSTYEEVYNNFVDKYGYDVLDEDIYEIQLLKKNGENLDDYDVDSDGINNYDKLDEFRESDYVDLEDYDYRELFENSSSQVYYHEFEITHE
Nature of the data set: cryo-EM; Promoter EMSA: 20 mM Tris-HCl pH 7.5, 300 mM NaCl, on ice/4 C, 30 min; SaCas9 EMSA: 20 mM Tris pH 7.5, 200 mM NaCl, 10 mM EDTA, RT; SPR: 10 mM Na2HPO4, 2 mM KH2PO4, 0.3 M NaCl; SEC: 20 mM Tris pH 7.5, 300 mM NaCl. To be noted: protein: recombinant;recombinant; tags: His6-Sumo removed by Ulp1;C-His6 or His6-Sumo (removed); copies: 1;1; hairpin. For orientation: Mobility shift assays separate free from complexed probe on a gel.

For data set [2], the target named is T3, SaCas9;AcrIIA15 full-length (Staphylococcus aureus;, UniProt J7RUA5;PDB:8JG9_3 1-1053;1-171, |).
T3 sequence 1: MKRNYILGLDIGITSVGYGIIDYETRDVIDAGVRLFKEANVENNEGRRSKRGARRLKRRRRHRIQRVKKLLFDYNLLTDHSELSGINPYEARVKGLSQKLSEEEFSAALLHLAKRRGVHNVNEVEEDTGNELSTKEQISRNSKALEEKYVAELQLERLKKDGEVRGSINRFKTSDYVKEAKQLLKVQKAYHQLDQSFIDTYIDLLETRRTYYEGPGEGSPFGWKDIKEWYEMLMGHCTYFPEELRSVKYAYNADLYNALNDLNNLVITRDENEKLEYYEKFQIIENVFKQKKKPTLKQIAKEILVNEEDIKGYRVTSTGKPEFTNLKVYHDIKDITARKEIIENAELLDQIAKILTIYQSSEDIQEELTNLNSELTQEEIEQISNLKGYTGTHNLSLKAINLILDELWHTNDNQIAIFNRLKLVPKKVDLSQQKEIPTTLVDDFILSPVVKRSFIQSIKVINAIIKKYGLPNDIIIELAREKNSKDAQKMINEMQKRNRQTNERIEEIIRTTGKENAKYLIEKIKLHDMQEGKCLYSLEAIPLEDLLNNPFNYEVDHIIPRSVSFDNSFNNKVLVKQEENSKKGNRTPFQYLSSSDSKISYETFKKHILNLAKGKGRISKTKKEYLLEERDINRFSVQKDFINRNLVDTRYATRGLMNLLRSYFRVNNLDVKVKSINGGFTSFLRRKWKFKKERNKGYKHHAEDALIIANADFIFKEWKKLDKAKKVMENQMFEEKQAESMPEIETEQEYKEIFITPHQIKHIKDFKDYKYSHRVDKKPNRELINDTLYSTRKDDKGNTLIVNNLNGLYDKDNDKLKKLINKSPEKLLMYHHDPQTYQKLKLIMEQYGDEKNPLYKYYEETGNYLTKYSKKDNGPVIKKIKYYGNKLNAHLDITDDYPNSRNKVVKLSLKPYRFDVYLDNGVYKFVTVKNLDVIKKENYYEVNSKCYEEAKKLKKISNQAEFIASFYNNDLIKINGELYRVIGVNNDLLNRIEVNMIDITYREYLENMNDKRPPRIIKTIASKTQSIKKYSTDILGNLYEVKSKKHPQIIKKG
T3 sequence 2: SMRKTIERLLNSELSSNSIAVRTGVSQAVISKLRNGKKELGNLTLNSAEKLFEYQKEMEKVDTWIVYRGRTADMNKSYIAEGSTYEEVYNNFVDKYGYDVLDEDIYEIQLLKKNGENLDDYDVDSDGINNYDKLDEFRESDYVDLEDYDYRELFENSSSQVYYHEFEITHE
The data set can be described thus: cryo-EM; with IR1 DNA; Promoter EMSA: 20 mM Tris-HCl pH 7.5, 300 mM NaCl, on ice/4 C, 30 min; SaCas9 EMSA: 20 mM Tris pH 7.5, 200 mM NaCl, 10 mM EDTA, RT; SPR: 10 mM Na2HPO4, 2 mM KH2PO4, 0.3 M NaCl; SEC: 20 mM Tris pH 7.5, 300 mM NaCl. To be noted: protein: recombinant;recombinant; tags: His6-Sumo removed by Ulp1;C-terminal His6, or His6-Sumo removed by Ulp1; chain copies: 2;2; hairpin.

The target in the next data set is T4, AcrIIA15 CTD (UniProt PDB:8JFT_3 1-114).
T4 sequence: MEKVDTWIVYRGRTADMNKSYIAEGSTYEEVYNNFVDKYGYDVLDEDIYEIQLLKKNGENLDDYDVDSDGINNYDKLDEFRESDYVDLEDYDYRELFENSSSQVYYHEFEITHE
The data set can be described thus: EMSA; Promoter EMSA: 20 mM Tris-HCl pH 7.5, 300 mM NaCl, on ice/4 C, 30 min; SaCas9 EMSA: 20 mM Tris pH 7.5, 200 mM NaCl, 10 mM EDTA, RT; SPR: 10 mM Na2HPO4, 2 mM KH2PO4, 0.3 M NaCl; SEC: 20 mM Tris pH 7.5, 300 mM NaCl. To be noted: protein: recombinant; tags: C-His6 or His6-Sumo (removed); blunt.

A further data set deals with T5, AcrIIA15 NTD (UniProt PDB:8JFR_1 1-63).
T5 sequence: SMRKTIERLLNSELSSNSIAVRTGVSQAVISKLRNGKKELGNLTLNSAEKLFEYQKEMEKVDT
Described as above. To be noted: protein: recombinant; tags: C-His6 or His6-Sumo (removed); chain copies: 2; blunt.

Data set [3] concerns the target T1, AcrIIA15 full-length. The description is as above. To be noted: protein: recombinant; tags: C-terminal His6, or His6-Sumo removed by Ulp1; chain copies: 2; blunt.

B1: IR1' (dsDNA)
DNA 1: TTATGACAAATGTCATAG
DNA 2: CTATGACATTTGTCATAA
With B1, the binding result in the data set with AcrIIA15 full-length [1] is on record as “no binding”.

B2: SaCas9 sgRNA (structured_RNA)
RNA: GGUCUGCUAUUUCUAUUUACGUUUUAGUACUCUGGAAACAGAAUCUACUAAAACAAGGCAAAAUGCCGUGUUUAUCUCGUCAACUUGUUGGCGAGAUC
For the molecule B2, the binding result (with SaCas9;AcrIIA15 CTD; in data set [2]) was “binds” in each case.

B3: IR1-IR2 (dsDNA)
DNA 1: ATAATTATGACAAATGTCATAGAAAAGCGTTGACTTATGACGAACGTCATAATATA
DNA 2: TATATTATGACGTTCGTCATAAGTCAACGCTTTTCTATGACATTTGTCATAATTAT
In the case of B3, the binding result is on record as “no binding” with AcrIIA15 CTD, “binds” with AcrIIA15 NTD and “binds” with AcrIIA15 full-length [3].
